We go through one protein from US20060110789.

Data set [1] addresses T1, (5)M3+TE (module 3 of DEBS with the N-terminal linker of module 5, fused to thioesterase), Q03132.
T1 chain: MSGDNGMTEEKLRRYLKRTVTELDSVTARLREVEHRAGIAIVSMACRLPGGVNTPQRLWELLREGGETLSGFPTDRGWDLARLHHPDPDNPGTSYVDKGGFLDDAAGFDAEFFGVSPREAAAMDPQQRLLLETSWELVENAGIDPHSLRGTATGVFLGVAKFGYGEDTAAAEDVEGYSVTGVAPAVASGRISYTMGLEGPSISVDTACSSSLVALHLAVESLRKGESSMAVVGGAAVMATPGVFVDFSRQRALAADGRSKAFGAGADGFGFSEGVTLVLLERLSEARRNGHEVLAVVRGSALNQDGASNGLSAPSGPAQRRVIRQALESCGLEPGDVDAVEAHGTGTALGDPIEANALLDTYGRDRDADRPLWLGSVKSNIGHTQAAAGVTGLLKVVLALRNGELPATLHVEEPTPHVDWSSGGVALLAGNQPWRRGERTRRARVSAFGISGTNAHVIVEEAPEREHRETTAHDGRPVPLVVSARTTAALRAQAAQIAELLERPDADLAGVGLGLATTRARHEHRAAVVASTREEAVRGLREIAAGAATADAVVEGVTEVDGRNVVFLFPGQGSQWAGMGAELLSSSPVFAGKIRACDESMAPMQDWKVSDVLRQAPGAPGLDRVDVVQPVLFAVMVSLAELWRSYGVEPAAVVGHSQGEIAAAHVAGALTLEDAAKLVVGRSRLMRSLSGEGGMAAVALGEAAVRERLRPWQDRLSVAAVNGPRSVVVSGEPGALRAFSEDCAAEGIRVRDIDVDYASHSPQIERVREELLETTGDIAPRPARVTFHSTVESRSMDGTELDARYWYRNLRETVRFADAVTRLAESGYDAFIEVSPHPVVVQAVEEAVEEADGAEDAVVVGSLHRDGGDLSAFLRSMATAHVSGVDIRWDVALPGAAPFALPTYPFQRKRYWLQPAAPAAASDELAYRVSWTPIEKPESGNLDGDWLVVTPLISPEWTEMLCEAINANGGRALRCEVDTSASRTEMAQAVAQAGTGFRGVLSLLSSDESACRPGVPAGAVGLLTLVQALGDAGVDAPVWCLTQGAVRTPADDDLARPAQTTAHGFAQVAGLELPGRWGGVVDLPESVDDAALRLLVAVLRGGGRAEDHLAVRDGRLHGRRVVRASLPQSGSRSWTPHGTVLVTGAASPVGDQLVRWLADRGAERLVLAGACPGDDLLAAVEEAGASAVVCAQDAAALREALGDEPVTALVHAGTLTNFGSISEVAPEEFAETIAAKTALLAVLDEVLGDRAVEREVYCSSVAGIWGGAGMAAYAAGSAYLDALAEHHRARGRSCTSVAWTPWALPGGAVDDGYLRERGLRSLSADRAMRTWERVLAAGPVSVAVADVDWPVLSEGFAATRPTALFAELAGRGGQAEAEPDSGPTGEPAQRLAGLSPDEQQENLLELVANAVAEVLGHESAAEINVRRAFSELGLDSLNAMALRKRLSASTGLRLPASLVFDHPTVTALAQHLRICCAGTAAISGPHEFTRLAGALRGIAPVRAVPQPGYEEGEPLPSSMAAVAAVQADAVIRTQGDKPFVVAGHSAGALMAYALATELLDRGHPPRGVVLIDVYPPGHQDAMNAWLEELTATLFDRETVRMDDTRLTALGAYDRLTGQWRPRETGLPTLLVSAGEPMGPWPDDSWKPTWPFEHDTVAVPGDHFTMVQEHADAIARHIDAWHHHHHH

The target in data set [2] is T2, M3+TE (module 3 of DEBS with its own N-terminal linker, fused to thioesterase), Q03132.
T2 chain: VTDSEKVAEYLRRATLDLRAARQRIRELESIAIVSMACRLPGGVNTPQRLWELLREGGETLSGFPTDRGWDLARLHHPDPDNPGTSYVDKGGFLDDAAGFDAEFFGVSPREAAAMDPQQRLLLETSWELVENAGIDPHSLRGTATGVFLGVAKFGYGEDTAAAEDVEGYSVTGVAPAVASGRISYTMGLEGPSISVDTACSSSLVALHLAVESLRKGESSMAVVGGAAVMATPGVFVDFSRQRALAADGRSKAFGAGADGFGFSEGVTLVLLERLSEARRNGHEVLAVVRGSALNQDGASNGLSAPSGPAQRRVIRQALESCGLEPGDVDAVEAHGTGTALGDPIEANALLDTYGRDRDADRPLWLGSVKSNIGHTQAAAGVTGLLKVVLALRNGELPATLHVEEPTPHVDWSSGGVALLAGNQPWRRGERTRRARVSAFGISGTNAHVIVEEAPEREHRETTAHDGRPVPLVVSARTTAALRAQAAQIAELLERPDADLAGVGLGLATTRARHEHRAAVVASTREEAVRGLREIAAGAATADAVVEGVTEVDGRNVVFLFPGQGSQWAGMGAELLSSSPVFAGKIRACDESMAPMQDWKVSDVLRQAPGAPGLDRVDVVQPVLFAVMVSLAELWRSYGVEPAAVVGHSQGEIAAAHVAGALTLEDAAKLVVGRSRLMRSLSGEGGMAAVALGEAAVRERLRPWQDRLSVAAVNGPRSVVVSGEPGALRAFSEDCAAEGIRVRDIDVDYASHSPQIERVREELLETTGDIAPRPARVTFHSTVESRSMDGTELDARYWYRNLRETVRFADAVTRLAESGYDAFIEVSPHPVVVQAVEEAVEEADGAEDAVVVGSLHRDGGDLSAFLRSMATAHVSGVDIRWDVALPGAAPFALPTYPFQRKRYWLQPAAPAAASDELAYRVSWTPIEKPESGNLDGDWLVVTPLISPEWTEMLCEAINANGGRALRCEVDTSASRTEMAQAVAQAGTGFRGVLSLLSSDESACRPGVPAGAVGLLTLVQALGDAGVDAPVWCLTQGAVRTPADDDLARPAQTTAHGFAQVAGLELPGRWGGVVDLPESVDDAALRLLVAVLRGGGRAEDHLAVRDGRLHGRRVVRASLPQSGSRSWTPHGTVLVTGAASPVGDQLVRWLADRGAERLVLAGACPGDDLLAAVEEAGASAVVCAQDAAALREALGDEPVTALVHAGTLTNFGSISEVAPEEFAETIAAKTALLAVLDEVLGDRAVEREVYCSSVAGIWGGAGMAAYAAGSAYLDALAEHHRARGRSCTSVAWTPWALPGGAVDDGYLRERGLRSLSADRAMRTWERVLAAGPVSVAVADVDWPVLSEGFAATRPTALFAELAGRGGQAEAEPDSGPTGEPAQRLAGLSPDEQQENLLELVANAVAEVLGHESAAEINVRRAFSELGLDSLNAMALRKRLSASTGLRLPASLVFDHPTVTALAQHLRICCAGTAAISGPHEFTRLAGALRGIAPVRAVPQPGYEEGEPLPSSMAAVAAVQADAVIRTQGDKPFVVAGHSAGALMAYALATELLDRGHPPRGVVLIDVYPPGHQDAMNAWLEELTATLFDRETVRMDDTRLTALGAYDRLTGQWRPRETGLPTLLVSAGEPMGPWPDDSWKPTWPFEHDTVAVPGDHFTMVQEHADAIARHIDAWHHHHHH

B1: M2(4) (module 2 of DEBS with the C-terminal linker of module 4) (protein)
chain: MSGDNGMTEEKLRRYLKRTVTELDSVTARLREVEHRAGIAIVGMACRLPGEVDSPERLWELITSGRDSAAEVPDDRGWVPDELMASDAAGTRAHGNFMAGAGDFDAAFFGISPREALAMDPQQRQALETTWEALESAGIPPETLRGSDTGVFVGMSHQGYATGRPRPEDGVDGYLLTGNTASVASGRIAYVLGLEGPALTVDTACSSSLVALHTACGSLRDGDCGLAVAGGVSVMAGPEVFTEFSRQGALSPDGRCKPFSDEADGFGLGEGSAFVVLQRLSDARREGRRVLGVVAGSAVNQDGASNGLSAPSGVAQQRVIRRAWARAGITGADVAVVEAHGTGTRLGDPVEASALLATYGKSRGSSGPVLLGSVKSNIGHAQAAAGVAGVIKVLLGLERGVVPPMLCRGERSGLIDWSSGEIELADGVREWSPAADGVRRAGVSAFGVSGTNAHVIIAEPPEPEPVPQPRRMLPATGVVPVVLSARTGAALRAQAGRLADHLAAHPGIAPADVSWTMARARQHFEERAAVLAADTAEAVHRLRAVADGAVVPGVVTGSASDGGSVFVFPGQGAQWEGMARELLPVPVFAESIAECDAVLSEVAGFSVSEVLEPRPDAPSLERVDVVQPVLFAVMVSLARLWRACGAVPSAVIGHSQGEIAAAVVAGALSLEDGMRVVARRSRAVRAVAGRGSMLSVRGGRSDVEKLLADDSWTGRLEVAAVNGPDAVVVAGDAQAAREFLEYCEGVGIRARAIPVDYASHTAHVEPVRDELVQALAGITPRRAEVPFFSTLTGDFLDGTELDAGYWYRNLRHPVEFHSAVQALTDQGYATFIEVSPHPVLASSVQETLDDAESDAAVLGTLERDAGDADRFLTALADAHTRGVAVDWEAVLGRAGLVDLPGYPFQGKRFWLLPDRTTPRDELDGWFYRVDWTEVPRSEPAALRGRWLVVVPEGHEEDGWTVEVRSALAEAGAEPEVTRGVGGLVGDCAGVVSLLALEGDGAVQTLVLVRELDAEGIDAPLWTVTFGAVDAGSPVARPDQAKLWGLGQVASLERGPRWTGLVDLPHMPDPELRGRLTAVLAGSEDQVAVRADAVRARRLSPAHVTATSEYAVPGGTILVTGGTAGLGAEVARWLAGRGAEHLALVSRRGPDTEGVGDLTAELTRLGARVSVHACDVSSREPVRELVHGLIEQGDVVRGVVHAAGLPQQVAINDMDEAAFDEVVAAKAGGAVHLDELCSDAELFLLFSSGAGVWGSARQGAYAAGNAFLDAFARHRRGRGLPATSVAWGLWAAGGMTGDEEAVSFLRERGVRAMPVPRALAALDRVLASGETAVVVTDVDWPAFAESYTAARPRPLLDRIVTTAPSERAGEPETESLRDRLAGLPRAERTAELVRLVRTSTATVLGHDDPKAVRATTPFKELGFDSLAAVRLRNLLNAATGLRLPSTLVFDHPNASAVAGFLDFAASPAVDIGDRLDELEKALEALSAEDGHDDVGQRLESLLRRWNSRRADAPSTSAISEDASDDELFSMLDQRFGGGEDL
Turning to B1, in data set [1], the “KM, fold increase against the natural linker pair (M2 with M3+TE)” value was “the increase in KM value upon swapping in the alternate linker pair is a more modest 2-fold” and the “kcat of tetraketide lactone 2 synthesis” value is given as “kcat of 0.74±0.06 min^-1”. In data set [2], the “highest rate constant of tetraketide lactone 2 formation (mismatched linkers)” value is recorded as “in the range of 0.02-0.03 min^-1”.
